Article doi:10.1101/498428

How the values were obtained:
Assay in all cases: native gel or EMSA
[1] = biological target: His-PRDM9^Cst ZnF2-6 (Mus musculus castaneus (CAST/EiJ strain))
[2] = biological target: His-Halo-PRDM9^Cst ZnF1-11 (Mus musculus castaneus (CAST/EiJ strain))
[3] = biological target: His-MBP-eYFP-PRDM9^Cst ZnF (Mus musculus castaneus (CAST/EiJ strain))
[4] = biological target: His-eYFP-PRDM9^Cst ZnF1-11 (Mus musculus castaneus (CAST/EiJ strain))
[5] = biological target: His-MBP-eYFP-PRDM9^Dom2 ZnF (Mus musculus domesticus (C57BL/6J strain))
[6] = biological target: His-eYFP-PRDM9^Cst ZnF2-11 (Mus musculus castaneus (CAST/EiJ strain))
[7] = biological target: His-eYFP-PRDM9^Cst ZnF (Mus musculus castaneus (CAST/EiJ strain))
[8] = biological target: His-PRDM9^Cst ZnF (Mus musculus castaneus (CAST/EiJ strain))
[9] = biological target: His-eYFP-PRDM9^Cst (full-length PRDM9^Cst) (Mus musculus castaneus (CAST/EiJ strain))
[10] = biological target: His-PRDM9^Cst ZnF1-11 (Mus musculus castaneus (CAST/EiJ strain))
[11] = biological target: His-PRDM9^Cst ZnF2-8 (Mus musculus castaneus (CAST/EiJ strain))

His-PRDM9^Cst ZnF2-6 (domain or fragment)
stoichiometry N [1]: 3

His-Halo-PRDM9^Cst ZnF1-11 (domain or fragment)
stoichiometry N [2]: 3

His-MBP-eYFP-PRDM9^Cst ZnF (domain or fragment)
stoichiometry N [3]: 3

His-eYFP-PRDM9^Cst ZnF1-11 (domain or fragment)
stoichiometry N [4]: 3

His-MBP-eYFP-PRDM9^Dom2 ZnF (domain or fragment)
stoichiometry N [5]: 3

His-eYFP-PRDM9^Cst ZnF2-11 (domain or fragment)
stoichiometry N [6]: 3

His-eYFP-PRDM9^Cst ZnF (domain or fragment)
stoichiometry N [7]: 3

His-PRDM9^Cst ZnF (domain or fragment)
stoichiometry N [8]: 3

His-eYFP-PRDM9^Cst (full-length PRDM9^Cst) (natural protein)
stoichiometry N [9]: 3

His-PRDM9^Cst ZnF1-11 (domain or fragment)
stoichiometry N [10]: 3

His-PRDM9^Cst ZnF2-8 (domain or fragment)
stoichiometry N [11]: 3
